From PMC8341956 come the findings set out here.

The experiment has as its target nucleosome core particle (recombinant Xenopus laevis histone octamer on 147 bp 601 DNA) (Xenopus laevis). Kind of experiment: native gel or EMSA; as the gel shift with nucleosome cores (50 nM), at higher concentrations of HMGN1 (methods: 2-800 nM); ESI Fig. S9.3.

Some results are limits rather than exact numbers.

Take “full-length recombinant HMGN1 (HMGN1_1–99, unmodified) (natural protein)”: the stoichiometry N (HMGN1 molecules per nucleosome) is above 2.
